{
  "source": "paper PMC8131759",
  "key": {"[1]": {"biological_target": "bacteriophage P22 coat protein (CP), assembled as P22 virus-like particle capsid (bacteriophage P22) (UniProt P26747)", "sequence (P26747 whole entry)": "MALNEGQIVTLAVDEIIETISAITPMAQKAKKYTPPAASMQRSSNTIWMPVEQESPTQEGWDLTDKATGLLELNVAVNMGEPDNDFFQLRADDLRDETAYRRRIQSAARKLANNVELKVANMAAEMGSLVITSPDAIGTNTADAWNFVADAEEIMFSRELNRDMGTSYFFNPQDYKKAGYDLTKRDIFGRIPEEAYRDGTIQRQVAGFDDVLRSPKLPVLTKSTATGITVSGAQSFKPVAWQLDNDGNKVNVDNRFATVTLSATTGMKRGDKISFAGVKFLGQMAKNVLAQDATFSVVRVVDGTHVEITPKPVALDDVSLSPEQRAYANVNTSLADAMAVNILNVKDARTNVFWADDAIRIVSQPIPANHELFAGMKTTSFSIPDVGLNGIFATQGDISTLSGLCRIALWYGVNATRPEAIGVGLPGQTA", "test": "SEC-MALS; expanded (EX) VLPs made from PC by 3.5 mM SDS for 5 min at room temperature, then ultracentrifuged twice; also SDS-PAGE and TEM"}, "[2]": {"biological_target": "bacteriophage P22 coat protein (CP), assembled as P22 virus-like particle capsid (bacteriophage P22) (UniProt P26747)", "test": "SEC-MALS; procapsid (PC) VLPs from co-expression of CP and AdhD-SP in E. coli, purified; also SDS-PAGE and TEM; cargo number calculated from the molar mass of the particles; 50 mM sodium phosphate, 100 mM sodium chloride, pH 7.0"}},
  "data": [
    {"substance": "alcohol dehydrogenase-D (AdhD) fused to P22 scaffolding protein (AdhD-SP) (enzyme)", "values": [
      {"measurement": "stoichiometry N (AdhD-SP per VLP)", "setting": "[1]", "value": 174},
      {"measurement": "stoichiometry N (AdhD per capsid)", "setting": "[2]", "value": 204}
    ]}
  ]
}
